# In PMC10145556:
# T1: LHRH receptor (LHRH-R) (human (endogenous in MCF-7 and Hs68)) (UniProt P30968)
# T1 sequence: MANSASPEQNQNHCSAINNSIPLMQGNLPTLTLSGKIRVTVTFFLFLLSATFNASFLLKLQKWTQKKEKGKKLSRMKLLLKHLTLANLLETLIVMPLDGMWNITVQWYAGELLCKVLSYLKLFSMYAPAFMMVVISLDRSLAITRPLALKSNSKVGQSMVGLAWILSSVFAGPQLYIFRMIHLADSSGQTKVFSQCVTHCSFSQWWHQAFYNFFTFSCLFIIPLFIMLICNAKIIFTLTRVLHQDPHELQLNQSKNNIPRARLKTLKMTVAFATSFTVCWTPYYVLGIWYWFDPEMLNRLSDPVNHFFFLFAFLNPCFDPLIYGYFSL
# B1: LHRH-BinBC (luteinizing hormone-releasing hormone peptide fused through a GSG linker to the N-terminus of the pore-forming C-terminal domain of BinB) (protein)
# chain: QHWSYGLRPGGSGIPQLPQTSLLENIPEPTSLDDSGVLPKDAVRAVKGSALLPCIIVHDPNLNNSDKMKFNTYYLLEYKEYWHQLWSQIIPAHQTVKIQERTGISEVVQNSMIEDLNMYIGADFGMLFYFRSSGFKEQITRGLNRPLSQTTTQLGERVEEMEYYNSNDLDVRYVKYALAREFTLKRVNGEIVKNWVAVDYRLAGIQSYPNAPITNPLTLTKHTIIRCENSYDGHIFKTPLIFKNGEVIVKTNEELIPKINQ
# Target: T1, LHRH receptor (LHRH-R) (human (endogenous in MCF-7 and Hs68))
binder,measurement,value
B1,"IC50 of inhibition of MCF-7 cell proliferation (MTT assay, 48 h, 1-16 μM LHRH-BinBC)",11 µM
